Each block holds one binder with its values, some of them ahead of it.
What was measured:
human serum albumin [1] = molecular target: T1, human serum albumin (human, UniProt P02768 25-609); test: Biacore sensorgram on serum albumin (HSA)
T1 construct: mature; Bought protein; biotinylated in the Octet and HTRF assays; also called HSA; HuSA

cynomolgus serum albumin [2] = molecular target: T2, cynomolgus serum albumin (cynomolgus); test: binding ELISA, coated albumin, pH 7.4
T2 construct: also called CSA; cyno serum albumin
Protocol: (§1) Briefly, ELISA was performed as follow:
(§2) Human (Sigma-Aldrich); Cynomolgus and Mouse (Abcam); Equine (Abcam); Canine (Abcam); Mouse (Sigma-Aldrich); Rabbit (Sigma-Aldrich); Porcine (Sigma-Aldrich);, and Rat (Sigma-Aldrich) serum albumin were coated overnight on 96 well plates (Corning Costar) at 1 μg/ml in PBS at the appropriate pH (pH 6.0 or 7.4). Plates were saturated using 5% Casein (Sigma-Aldrich) buffer in PBS. […] Plates were then washed and AFFIMER® proteins were detected using a biotinylated polyclonal antibody anti-Cystatin (R&D System) for 90 minutes. After washing, streptavidin-HRP (Thermo Fisher Scientific) was added and incubated for 30 minutes.

rabbit serum albumin = rabbit serum albumin (rabbit, UniProt P49065 25-608); test: binding ELISA, coated albumin, pH 7.4
Protocol: as §1, §2

equine serum albumin [3] = molecular target: T3, equine serum albumin (equine, UniProt P35747 25-607); test: binding ELISA, coated albumin, pH 7.4
Protocol: as §1, §2

canine serum albumin [4] = molecular target: T4, canine serum albumin (canine, UniProt P49822 25-608); test: binding ELISA, coated albumin, pH 7.4
Protocol: as §1, §2

porcine serum albumin [5] = molecular target: T5, porcine serum albumin (porcine, UniProt P08835 25-607); test: binding ELISA, coated albumin, pH 7.4
Protocol: as §1, §2

rat serum albumin [6] = molecular target: T6, rat serum albumin (rat, UniProt P02770 25-608); test: binding ELISA, coated albumin, pH 7.4
Protocol: as §1, §2

human serum albumin [7] = molecular target: T1, human serum albumin; test: binding ELISA, coated albumin, pH 7.4
Protocol: as §1, §2

mouse serum albumin [8] = molecular target: T7, mouse serum albumin (mouse, UniProt P07724 25-608); test: binding ELISA, coated albumin, pH 7.4
T7 construct: also called MSA
Protocol: as §1, §2

cynomolgus serum albumin [9] = molecular target: T2, cynomolgus serum albumin; test: BLI (Octet), biotinylated albumin on SA sensor, pH 6.0
Protocol: (§3) Biotinylated antigen was captured onto SA sensors at 1 μg/ml for 600 seconds in a buffer comprising PBS-T (0.01% Tween 20)+1% casein at either pH 6.0 or 7.4. Association was carried out for 300 seconds and dissociation for 600 seconds, and regeneration was performed using 10 mM glycine pH 1.5 (GE Healthcare) for 3×5 seconds. All steps were carried out at 1000 rpm and 25° C. Purified AFFIMER® polypeptide in two-fold serial dilutions was analyzed at a starting concentration of approximately 10× K_{D value}. Kinetics analyses were carried out using the Octet data analysis software, subtracting the reference sensor (loaded with antigen), aligning the Y-axis to baseline, and using inter-step correction to align association to dissociation. Savitzky-Golay filtering was applied and the data processed. Analysis of the data was carried out with a 1:1 model, global fit, Rₘₐₓ unlinked by sensor.

human serum albumin [10] = molecular target: T1, human serum albumin; test: as above
Protocol: as §3

mouse serum albumin [11] = molecular target: T7, mouse serum albumin; test: as above
Protocol: as §3

cynomolgus serum albumin [12] = molecular target: T2, cynomolgus serum albumin; test: BLI (Octet), biotinylated albumin on SA sensor, pH 7.4
Protocol: as §3

human serum albumin [13] = molecular target: T1, human serum albumin; test: as above
Protocol: as §3

mouse serum albumin [14] = molecular target: T7, mouse serum albumin; test: as above
Protocol: as §3

cynomolgus serum albumin [15] = molecular target: T2, cynomolgus serum albumin; test: binding ELISA on coated albumin, pH 6.0, panel 'CSA Binding at pH 6.0'
Protocol: as §1, §2

human serum albumin [16] = molecular target: T1, human serum albumin; test: binding ELISA on coated albumin, pH 6.0, panel 'HSA Binding at pH 6.0'
Protocol: as §1, §2

mouse serum albumin [17] = molecular target: T7, mouse serum albumin; test: binding ELISA on coated albumin, pH 6.0, panel 'MSA Binding at pH 6.0'
Protocol: as §1, §2

rat serum albumin [18] = molecular target: T6, rat serum albumin; test: binding ELISA on coated albumin, pH 6.0, panel 'Rat SA Binding at pH 6.0'
Protocol: as §1, §2

cynomolgus serum albumin [19] = molecular target: T2, cynomolgus serum albumin; test: Octet biolayer interferometry, biotinylated albumin on SA sensors, pH 6.0
Protocol: as §3

human serum albumin [20] = molecular target: T1, human serum albumin; test: as above
Protocol: as §3

mouse serum albumin [21] = molecular target: T7, mouse serum albumin; test: as above
Protocol: as §3

cynomolgus serum albumin [22] = molecular target: T2, cynomolgus serum albumin; test: Octet biolayer interferometry, biotinylated albumin on SA sensors, pH 7.4
Protocol: as §3

human serum albumin [23] = molecular target: T1, human serum albumin; test: as above
Protocol: as §3

mouse serum albumin [24] = molecular target: T7, mouse serum albumin; test: as above
Protocol: as §3

canine serum albumin [25] = molecular target: T4, canine serum albumin; test: binding ELISA on coated albumin, pH 6.0, panel 'Canine SA Binding at pH 6.0'
Protocol: as §1, §2

porcine serum albumin [26] = molecular target: T5, porcine serum albumin; test: binding ELISA on coated albumin, pH 6.0, panel 'Porcine SA Binding at pH 6.0'
Protocol: as §1, §2

mouse serum albumin [27] = molecular target: T7, mouse serum albumin; test: Biacore, immobilised MSA, pH 6.0
Excerpt: (§4) […] Fc2-1, Fc3-1 and Fc4-1 kinetic data was blank subtracted and fit to a 1:1 Langmuir binding model (BIAcore Evalution software; GE) to calculate KD values.

human serum albumin [28] = molecular target: T1, human serum albumin; test: Biacore, immobilised HSA, running buffer pH 7.4
Protocol: (§5) Affinities for mouse, human, and cynomolgus serum were also measured at pH 7.4 for four (4) AFFIMER® binders using surface plasmon resonance (SPR) (FIG. 5, Table 5). […] A concentration titration of AFFIMER® monomers was run as analyte at a flow rate of 30 μl/min or 60 μl/min. Fc2-1, Fc3-1 and Fc4-1 kinetic data was blank subtracted and fit to a 1:1 Langmuir binding model (BIAcore Evalution software; GE) to calculate KD values.

human serum albumin [29] = molecular target: T1, human serum albumin; test: Biacore, immobilised HSA, running buffer pH 6.0
Excerpt: as §4

cynomolgus serum albumin [30] = molecular target: T2, cynomolgus serum albumin; test: SPR (Biacore T200), albumin amine-coupled to CM5, Affimer analyte, pH 7.4
Protocol: as §5

human serum albumin [31] = molecular target: T1, human serum albumin; test: as above
Protocol: as §5

mouse serum albumin [32] = molecular target: T7, mouse serum albumin; test: as above
Protocol: as §5

equine serum albumin [33] = molecular target: T3, equine serum albumin; test: binding ELISA on coated albumin, pH 7.4, panel 'Equine SA Binding at pH 7.4' (Table 6 gives NA for this pair)
Protocol: as §1, §2

human serum albumin [34] = molecular target: T1, human serum albumin; test: binding ELISA on coated HSA, pH 7.4
Protocol: (§6) After saturation with 5% PBS Casein pH 7.5, plates were washed and a dilution of AFFIMER® trimers or controls were incubated on the plate for 90 minutes. Plates were then washed, and a biotinylated polyclonal antibody anti-cystatin A (R&D Systems) was added for 1 hour. Plates were washed and AFFIMER® ILFs were detected using streptavidin-HRP. After a last washing step, TMB was added for the development of the experiment, and the plates were read at 450 nm.

mouse serum albumin [35] = molecular target: T7, mouse serum albumin; test: binding ELISA on coated MSA, pH 7.4
Protocol: as §6

[36] = molecular target: T8, human PD-L1-Fc (R&D Systems) chimeric protein (human, UniProt Q9NZQ7 19-239); test: Biacore single cycle kinetics on human PD-L1 Fc
T8 construct: Bought reagent; also called rhPD-L1-Fc; huPD-L1; Fc part of the bought chimera not given, not described
T8 sequence (Q9NZQ7 19-239, change not shown): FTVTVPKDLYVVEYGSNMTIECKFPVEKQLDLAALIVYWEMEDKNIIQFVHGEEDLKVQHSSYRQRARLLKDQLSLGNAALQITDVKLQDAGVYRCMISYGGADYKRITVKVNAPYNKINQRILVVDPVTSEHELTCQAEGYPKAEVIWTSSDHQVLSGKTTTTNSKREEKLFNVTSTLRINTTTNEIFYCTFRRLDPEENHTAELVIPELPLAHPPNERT

T4 sequence (P49822 25-608 limits assumed): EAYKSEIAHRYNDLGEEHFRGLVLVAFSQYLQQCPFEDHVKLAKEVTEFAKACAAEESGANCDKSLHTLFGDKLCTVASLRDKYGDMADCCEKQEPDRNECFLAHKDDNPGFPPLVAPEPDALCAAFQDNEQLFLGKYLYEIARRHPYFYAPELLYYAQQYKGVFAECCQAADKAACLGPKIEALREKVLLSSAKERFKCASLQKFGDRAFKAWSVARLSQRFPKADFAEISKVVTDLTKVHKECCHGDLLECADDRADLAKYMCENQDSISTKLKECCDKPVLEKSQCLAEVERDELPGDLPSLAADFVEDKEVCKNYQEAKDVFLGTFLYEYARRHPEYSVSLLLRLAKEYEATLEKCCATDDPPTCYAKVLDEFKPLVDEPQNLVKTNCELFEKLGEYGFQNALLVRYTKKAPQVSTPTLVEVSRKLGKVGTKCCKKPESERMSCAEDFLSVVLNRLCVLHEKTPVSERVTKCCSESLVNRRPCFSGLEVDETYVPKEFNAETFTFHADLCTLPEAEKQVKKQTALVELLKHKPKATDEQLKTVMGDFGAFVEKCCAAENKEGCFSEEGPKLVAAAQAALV
T2 sequence (A2V9Z4 25-608): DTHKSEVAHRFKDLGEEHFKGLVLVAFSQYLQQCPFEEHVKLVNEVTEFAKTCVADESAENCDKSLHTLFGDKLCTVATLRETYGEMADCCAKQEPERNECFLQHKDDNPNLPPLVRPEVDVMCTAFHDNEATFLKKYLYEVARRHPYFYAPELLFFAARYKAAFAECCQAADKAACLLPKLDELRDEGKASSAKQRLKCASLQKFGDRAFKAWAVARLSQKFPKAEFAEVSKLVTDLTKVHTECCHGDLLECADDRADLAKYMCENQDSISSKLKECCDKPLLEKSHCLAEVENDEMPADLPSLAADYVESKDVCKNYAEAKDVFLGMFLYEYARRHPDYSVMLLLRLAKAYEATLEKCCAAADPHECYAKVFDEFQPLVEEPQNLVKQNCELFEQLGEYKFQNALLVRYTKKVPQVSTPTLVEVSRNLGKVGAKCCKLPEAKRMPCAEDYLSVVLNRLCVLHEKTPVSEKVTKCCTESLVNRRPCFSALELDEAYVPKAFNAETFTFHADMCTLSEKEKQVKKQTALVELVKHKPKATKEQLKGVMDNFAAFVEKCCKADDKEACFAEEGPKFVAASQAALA
T7 sequence (P07724 25-608 limits assumed): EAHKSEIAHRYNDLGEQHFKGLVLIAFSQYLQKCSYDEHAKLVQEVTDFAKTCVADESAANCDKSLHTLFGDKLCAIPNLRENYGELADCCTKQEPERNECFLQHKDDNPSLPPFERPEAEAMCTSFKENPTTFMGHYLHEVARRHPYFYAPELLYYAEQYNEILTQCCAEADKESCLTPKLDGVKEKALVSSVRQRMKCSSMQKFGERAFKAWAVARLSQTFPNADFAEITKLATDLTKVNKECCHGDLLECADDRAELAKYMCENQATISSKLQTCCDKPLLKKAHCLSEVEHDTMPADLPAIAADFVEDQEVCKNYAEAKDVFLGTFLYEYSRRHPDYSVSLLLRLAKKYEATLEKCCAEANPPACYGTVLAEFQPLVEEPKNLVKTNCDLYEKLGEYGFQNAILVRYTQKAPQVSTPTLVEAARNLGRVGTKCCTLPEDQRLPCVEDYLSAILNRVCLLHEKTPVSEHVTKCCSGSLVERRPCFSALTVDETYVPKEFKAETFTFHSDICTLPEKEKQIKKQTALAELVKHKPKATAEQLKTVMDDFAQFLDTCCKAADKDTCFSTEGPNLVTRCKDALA
T5 sequence (P08835 25-607 limits assumed): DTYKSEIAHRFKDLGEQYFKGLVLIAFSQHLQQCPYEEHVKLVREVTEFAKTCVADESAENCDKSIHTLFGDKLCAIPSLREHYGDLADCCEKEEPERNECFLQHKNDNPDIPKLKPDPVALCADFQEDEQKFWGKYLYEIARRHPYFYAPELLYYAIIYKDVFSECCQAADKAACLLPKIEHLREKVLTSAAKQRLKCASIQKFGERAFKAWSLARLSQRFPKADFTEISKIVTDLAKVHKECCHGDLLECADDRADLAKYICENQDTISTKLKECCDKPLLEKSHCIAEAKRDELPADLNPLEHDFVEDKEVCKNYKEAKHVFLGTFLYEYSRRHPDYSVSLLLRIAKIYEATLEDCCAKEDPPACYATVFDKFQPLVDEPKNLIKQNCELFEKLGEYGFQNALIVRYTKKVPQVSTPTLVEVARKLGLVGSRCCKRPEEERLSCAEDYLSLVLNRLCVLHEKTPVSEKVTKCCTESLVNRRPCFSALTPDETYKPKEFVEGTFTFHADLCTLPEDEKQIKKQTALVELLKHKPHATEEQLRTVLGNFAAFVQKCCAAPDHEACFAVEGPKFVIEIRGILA
T6 sequence (P02770 25-608 limits assumed): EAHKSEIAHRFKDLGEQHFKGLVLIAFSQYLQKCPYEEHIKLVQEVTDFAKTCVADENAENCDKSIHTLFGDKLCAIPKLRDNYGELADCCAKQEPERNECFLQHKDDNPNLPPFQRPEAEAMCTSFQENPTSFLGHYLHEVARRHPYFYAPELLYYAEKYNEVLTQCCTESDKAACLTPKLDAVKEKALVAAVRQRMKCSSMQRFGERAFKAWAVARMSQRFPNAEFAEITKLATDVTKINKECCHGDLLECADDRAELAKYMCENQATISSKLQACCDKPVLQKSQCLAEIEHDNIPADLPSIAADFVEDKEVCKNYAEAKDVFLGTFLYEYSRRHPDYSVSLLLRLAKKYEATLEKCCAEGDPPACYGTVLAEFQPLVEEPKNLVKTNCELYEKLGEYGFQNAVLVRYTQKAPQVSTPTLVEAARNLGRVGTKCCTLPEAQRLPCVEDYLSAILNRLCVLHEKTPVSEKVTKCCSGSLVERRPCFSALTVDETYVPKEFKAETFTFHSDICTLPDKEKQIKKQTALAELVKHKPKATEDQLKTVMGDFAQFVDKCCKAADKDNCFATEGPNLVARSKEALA
rabbit serum albumin, sequence (P49065 25-608 limits assumed): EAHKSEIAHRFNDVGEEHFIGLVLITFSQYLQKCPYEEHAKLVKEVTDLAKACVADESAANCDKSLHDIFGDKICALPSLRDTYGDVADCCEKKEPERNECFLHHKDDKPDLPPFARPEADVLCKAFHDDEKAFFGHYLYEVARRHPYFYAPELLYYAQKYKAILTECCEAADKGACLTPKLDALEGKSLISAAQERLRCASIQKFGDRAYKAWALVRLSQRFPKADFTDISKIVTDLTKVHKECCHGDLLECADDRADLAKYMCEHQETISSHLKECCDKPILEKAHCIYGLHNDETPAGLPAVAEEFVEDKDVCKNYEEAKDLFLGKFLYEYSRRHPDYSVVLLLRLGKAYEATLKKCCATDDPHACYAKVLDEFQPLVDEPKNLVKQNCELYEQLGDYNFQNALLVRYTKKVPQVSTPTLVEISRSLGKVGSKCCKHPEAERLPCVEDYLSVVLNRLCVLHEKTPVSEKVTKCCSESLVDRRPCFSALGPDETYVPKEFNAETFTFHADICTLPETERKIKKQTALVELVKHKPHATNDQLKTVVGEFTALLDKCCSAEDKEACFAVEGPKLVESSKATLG
T3 sequence (P35747 25-607 limits assumed): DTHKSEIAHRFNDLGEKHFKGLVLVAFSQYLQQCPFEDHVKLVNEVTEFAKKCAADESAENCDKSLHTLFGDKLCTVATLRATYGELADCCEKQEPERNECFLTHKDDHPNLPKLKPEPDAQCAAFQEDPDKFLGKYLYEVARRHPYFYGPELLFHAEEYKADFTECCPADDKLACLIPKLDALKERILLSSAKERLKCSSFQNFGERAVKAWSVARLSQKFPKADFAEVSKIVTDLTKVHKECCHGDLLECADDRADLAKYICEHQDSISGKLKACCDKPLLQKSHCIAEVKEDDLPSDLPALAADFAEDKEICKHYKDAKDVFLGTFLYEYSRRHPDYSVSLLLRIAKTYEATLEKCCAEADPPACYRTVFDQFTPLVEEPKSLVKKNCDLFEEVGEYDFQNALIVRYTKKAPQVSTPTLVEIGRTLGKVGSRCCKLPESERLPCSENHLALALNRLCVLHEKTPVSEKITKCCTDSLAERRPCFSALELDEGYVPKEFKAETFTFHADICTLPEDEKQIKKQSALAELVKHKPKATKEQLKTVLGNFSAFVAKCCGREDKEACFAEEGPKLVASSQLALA

binding result (human serum albumin [1]): no binding
B1: HSA-41 x9 glycine loops (designed binder)
chain: MIPRGLSEAKPATPEIQEIVDKVKPQLEEKTNETYGKLEAVQYKTQVLANFFQRRWPGSTNYYIKVRAGDNKYMHLKVFNGPGGGGGGGGGADRVLTGYQVDKNKDDELTGFHHHHHH
notes: also called HSA-41 loop 4 replaced with 9 glycine residues; loop 4 knockout mutant

EC50 (cynomolgus serum albumin [2]): 0.43 nM
EC50 (rabbit serum albumin): 211 nM
EC50 (equine serum albumin [3]): 0.25 nM
EC50 (canine serum albumin [4]): 3.17 nM
EC50 (porcine serum albumin [5]): 2.6 nM
EC50 (rat serum albumin [6]): 0.39 nM
EC50 (human serum albumin [7]): 0.47 nM
EC50 (mouse serum albumin [8]): 0.03 nM
Kd (cynomolgus serum albumin [9]): 18.5 nM
Kd (human serum albumin [10]): 21.1 nM
Kd (mouse serum albumin [11]): 3.7 nM
Kd (cynomolgus serum albumin [12]): 83 nM
Kd (human serum albumin [13]): 15.3 nM
Kd (mouse serum albumin [14]): 3.3 nM
EC50 (read off the curve) (cynomolgus serum albumin [15]): ~0.6 nM
EC50 (read off the curve) (human serum albumin [16]): ~1 nM
EC50 (read off the curve) (mouse serum albumin [17]): ~0.06 nM
EC50 (read off the curve) (rat serum albumin [18]): ~0.04 nM
koff (cynomolgus serum albumin [19]): 0.00218 s⁻¹
kon (cynomolgus serum albumin [19]): 118000 M⁻¹ s⁻¹
koff (human serum albumin [20]): 0.00245 s⁻¹
kon (human serum albumin [20]): 116000 M⁻¹ s⁻¹
kon (mouse serum albumin [21]): 166000 M⁻¹ s⁻¹
koff (cynomolgus serum albumin [22]): 0.0037 s⁻¹
kon (cynomolgus serum albumin [22]): 44600 M⁻¹ s⁻¹
koff (human serum albumin [23]): 0.00317 s⁻¹
kon (human serum albumin [23]): 208000 M⁻¹ s⁻¹
koff (mouse serum albumin [24]): 0.000575 s⁻¹
kon (mouse serum albumin [24]): 176000 M⁻¹ s⁻¹
EC50 (read off the curve) (canine serum albumin [25]): ~2 nM
EC50 (read off the curve) (porcine serum albumin [26]): ~9 nM
B2: HSA-31 (designed binder)
chain: MIPRGLSEAKPATPEIQEIVDKVKPQLEEKTNETYGKLEAVQYKTQVLAVWGPEYQHQSTNYYIKVRAGDNKYMHLKVFNGPNAGWPLVPEADRVLTGYQVDKNKDDELTGFHHHHHH

binding result (human serum albumin [1]): no binding
B3: HSA-41 loop 4 deletion (designed binder)
chain: MIPRGLSEAKPATPEIQEIVDKVKPQLEEKTNETYGKLEAVQYKTQVLANFFQRRWPGSTNYYIKVRAGDNKYMHLKVFNGPADRVLTGYQVDKNKDDELTGFHHHHHH
notes: also called loop 4 knockout mutant (deletion)

EC50 (cynomolgus serum albumin [2]): 7.14 nM
EC50 (rabbit serum albumin): 847 nM
EC50 (canine serum albumin [4]): 96.5 nM
EC50 (porcine serum albumin [5]): 615 nM
EC50 (rat serum albumin [6]): 89.4 nM
EC50 (human serum albumin [7]): 1.41 nM
Kd (mouse serum albumin [27]): 49.4 nM
koff (mouse serum albumin [27]): 0.0298 s⁻¹
kon (mouse serum albumin [27]): 602000 M⁻¹ s⁻¹
Kd (cynomolgus serum albumin [9]): 68.7 nM
Kd (human serum albumin [10]): 17.9 nM
Kd (mouse serum albumin [11]): 618 nM
Kd (cynomolgus serum albumin [12]): 106 nM
Kd (human serum albumin [13]): 36.1 nM
Kd (mouse serum albumin [14]): 981 nM
Kd (human serum albumin [28]): 109 nM
koff (human serum albumin [28]): 0.0078 s⁻¹
kon (human serum albumin [28]): 71400 M⁻¹ s⁻¹
Kd (human serum albumin [29]): 152 nM
koff (human serum albumin [29]): 0.0122 s⁻¹
kon (human serum albumin [29]): 80000 M⁻¹ s⁻¹
Kd (cynomolgus serum albumin [30]): 542 nM
koff (cynomolgus serum albumin [30]): 0.0261 s⁻¹
kon (cynomolgus serum albumin [30]): 48300 M⁻¹ s⁻¹
Kd (human serum albumin [31]): 146 nM
koff (human serum albumin [31]): 0.00789 s⁻¹
kon (human serum albumin [31]): 54100 M⁻¹ s⁻¹
Kd (mouse serum albumin [32]): 2180 nM
koff (mouse serum albumin [32]): 0.0742 s⁻¹
kon (mouse serum albumin [32]): 34100 M⁻¹ s⁻¹
EC50 (read off the curve) (cynomolgus serum albumin [15]): ~0.1 nM
EC50 (read off the curve) (human serum albumin [16]): ~0.2 nM
EC50 (read off the curve) (rat serum albumin [18]): ~3 nM
EC50 (read off the curve) (canine serum albumin [25]): ~10 nM
binding result (equine serum albumin [33]): binds
B4: HSA-18 (designed binder)
chain: MIPRGLSEAKPATPEIQEIVDKVKPQLEEKTNETYGKLEAVQYKTQVLADWWQAKWPHSTNYYIKVRAGDNKYMHLKVFNGPYKVHQSSGGADRVLTGYQVDKNKDDELTGFHHHHHH
notes: also called HSA-18 monomer

Kd (mouse serum albumin [27]): 113 nM
koff (mouse serum albumin [27]): 0.0337 s⁻¹
kon (mouse serum albumin [27]): 297000 M⁻¹ s⁻¹
EC50 (human serum albumin [34]): 8.8 nM
EC50 (mouse serum albumin [35]): 60.8 nM
Kd [36]: 0.298 nM
koff [36]: 0.000159 s⁻¹
kon [36]: 534000 M⁻¹ s⁻¹
Kd (human serum albumin [28]): 325 nM
koff (human serum albumin [28]): 0.00758 s⁻¹
kon (human serum albumin [28]): 23300 M⁻¹ s⁻¹
Kd (human serum albumin [29]): 31.1 nM
koff (human serum albumin [29]): 0.00308 s⁻¹
kon (human serum albumin [29]): 98800 M⁻¹ s⁻¹
B5: AVA04-251 XT61 (designed binder)
chain: MIPRGLSEAKPATPEIQEIVDKVKPQLEEKTNETYGKLEAVQYKTQVLAREGRQDWVLSTNYYIKVRAGDNKYMHLKVFNGPWVPFPHQQLADRVLTGYQVDKNKDDELTGFAEAAAKEAAAKEAAAKEAAAKEAAAKEAAAKMIPRGLSEAKPATPEIQEIVDKVKPQLEEKTNETYGKLEAVQYKTQVLADWWQAKWPHSTNYYIKVRAGDNKYMHLKVFNGPYKVHQSSGGADRVLTGYQVDKNKDDELTGFAEAAAKEAAAKEAAAKEAAAKEAAAKEAAAKMIPRGLSEAKPATPEIQEIVDKVKPQLEEKTNETYGKLEAVQYKTQVLAREGRQDWVLSTNYYIKVRAGDNKYMHLKVFNGPWVPFPHQQLADRVLTGYQVDKNKDDELTGFHHHHHH

— patent US20230272011A1 (AVACTA LIFE SCIENCES, published 2023)
